These results are taken from patent publication US20090214535A1 (Chugai, published 2009).

Holding throughout (test): cell-based or functional assay
The target in assay [1] is Mpl on the BaF3 cells of FIG. 42 (human or monkey not stated).
The target in assay [2] is T1, human Mpl (on BaF3-human Mpl cells) (human, UniProt P40238 26-635).
T1 sequence (looked up): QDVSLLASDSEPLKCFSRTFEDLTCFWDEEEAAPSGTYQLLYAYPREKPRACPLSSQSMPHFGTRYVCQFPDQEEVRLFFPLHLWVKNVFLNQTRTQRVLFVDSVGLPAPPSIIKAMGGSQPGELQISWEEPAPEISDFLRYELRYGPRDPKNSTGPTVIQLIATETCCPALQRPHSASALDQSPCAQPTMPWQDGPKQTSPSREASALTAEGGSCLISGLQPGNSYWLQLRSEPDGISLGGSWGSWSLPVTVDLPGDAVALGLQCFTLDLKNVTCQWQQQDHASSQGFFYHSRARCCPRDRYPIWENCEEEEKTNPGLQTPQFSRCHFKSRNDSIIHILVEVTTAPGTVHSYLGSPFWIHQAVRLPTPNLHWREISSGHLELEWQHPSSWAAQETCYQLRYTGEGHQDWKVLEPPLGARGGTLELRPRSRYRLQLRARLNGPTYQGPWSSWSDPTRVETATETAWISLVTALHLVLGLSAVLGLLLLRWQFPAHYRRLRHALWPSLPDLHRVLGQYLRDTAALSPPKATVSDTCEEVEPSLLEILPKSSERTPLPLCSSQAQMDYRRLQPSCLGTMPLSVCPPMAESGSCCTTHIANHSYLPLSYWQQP

Assay [3] has as its target monkey Mpl (on BaF3-monkey Mpl cells) (monkey).
Assay [4] concerns the target T1, human Mpl (on BaF3-human Mpl cells). The source holds these as a separate data set.
In assay [5] the target is monkey Mpl (on BaF3-monkey Mpl cells) (monkey). This is another data set of the same source.
Assay [6] addresses T1, human Mpl (on BaF3-human Mpl cells). This is another data set of the same source.
Assay [7] deals with monkey Mpl (on BaF3-monkey Mpl cells) (monkey). This is another data set of the same source.

Changes are numbered by the printed parent chain. Where two headings read alike, the source gives them in different places.

B1: VB22B sc(Fv)2 peak 2 (single chain diabody-type conformational isomer) (scFv)
chain: QVQLQQSGPELVKPGASVKISCKASGYAFTNSWMNWVKQRPGKGLEWIGRIYPGDGETIYNGKFRVKATLTADKSSSTAYMDISSLTSEDSAVYFCARGYDDYSFAYWGQGTLVTVSAGGGGSGGGGSGGGGSDIVMTQAAPSIPVTPGESVSISCRSSKSLLHSNGNTYLYWFLQRPGQSPQLLIYRMSNLASGVPDRFSGSGSGTAFTLRISRVEAEDVGVYYCMQHIEYPFTFGSGTKLEIKGGGGSGGGGSGGGGSQVQLQQSGPELVKPGASVKISCKASGYAFTNSWMNWVKQRPGKGLEWIGRIYPGDGETIYNGKFRVKATLTADKSSSTAYMDISSLTSEDSAVYFCARGYDDYSFAYWGQGTLVTVSAGGGGSGGGGSGGGGSDIVMTQAAPSIPVTPGESVSISCRSSKSLLHSNGNTYLYWFLQRPGQSPQLLIYRMSNLASGVPDRFSGSGSGTAFTLRISRVEAEDVGVYYCMQHIEYPFTFGSGTKLEIK
Take B1: the “EC50 (read off the curve)” value in assay [1] is around 0.6 ng/mL. Further, the “EC50 (read off the curve) [A) BaF-human Mpl]” value in assay [2] is around 0.008 nM. Besides, in assay [3], the “EC50 (read off the curve) [B) BaF-monkey Mpl]” value is around 0.02 nM.

B2: mouse anti-human Mpl antibody mVB22B sc(Fv)2 (before separation of the conformational isomers) (scFv)
chain: B1 chain
As to B2, the “EC50 (read off the curve) [A) BaF-human Mpl]” value in assay [2] was around 0.01 nM. The “EC50 (read off the curve) [B) BaF-monkey Mpl]” value in assay [3] is around 0.03 nM.

B3: humanized anti-human Mpl antibody hVB22B u2-wz4 sc(Fv)2 (bulk, before separation of the conformational isomers) (scFv)
chain: QVQLVQSGPEVKKPGASVKVSCKASGYTFTNSWMNWVRQRPGKGLEWIGRIYPGDGETIYNGKFRVRVTITADESTSTAYMQLSSLRSEDTAVYYCARGYDDYSFAYWGQGTTVTVSSGGGGSGGGGSGGGGSDIVMTQSPLSLPVTPGEPASISCRSSKSLLHSNGNTYLYWFLQKPGQSPQLLIYRMSNLASGVPDRFSGSGSGTDFTLKISRVEAEDVGVYYCMQHIEYPFTFGQGTKLEIKGGGGSGGGGSGGGGSQVQLVQSGPEVKKPGASVKVSCKASGYTFTNSWMNWVRQRPGKGLEWIGRIYPGDGETIYNGKFRVRVTITADESTSTAYMQLSSLRSEDTAVYYCARGYDDYSFAYWGQGTTVTVSSGGGGSGGGGSGGGGSDIVMTQSPLSLPVTPGEPASISCRSSKSLLHSNGNTYLYWFLQKPGQSPQLLIYRMSNLASGVPDRFSGSGSGTDFTLKISRVEAEDVGVYYCMQHIEYPFTFGQGTKLEIK
Turning to B3, the results for the “EC50 (read off the curve) [A) BaF-human Mpl]” value in assay [4] and in assay [6] were around 0.06 nM and around 0.04 nM, respectively. Also, the “EC50 (read off the curve) [B) BaF-monkey Mpl]” value in assay [5] is around 0.02 nM; in assay [7], around 0.04 nM.

B4: hVB22B u2-wz4 sc(Fv)2 peak 2 (single chain diabody-type conformational isomer) (scFv)
chain: B3 chain
On to B4, for which the results for the “EC50 (read off the curve) [A) BaF-human Mpl]” value in assay [4] and in assay [6] were around 0.05 nM and around 0.04 nM, respectively. Further, the “EC50 (read off the curve) [B) BaF-monkey Mpl]” value in assay [5] is around 0.02 nM; in assay [7], around 0.03 nM.

B5: hVB22B u2-wz4 (v3) sc(Fv)2 (scFv)
chain: B3 chain with Q39E, Q176K, Q299K, Q436E
As to B5, the “EC50 (read off the curve) [A) BaF-human Mpl]” value in assay [4] was around 0.1 nM.

B6: hVB22B u2-wz4 (v1) sc(Fv)2 (scFv)
chain: B3 chain with Q39E, Q176E, Q299K, Q436K
On to B6, for which, in assay [4], the “EC50 (read off the curve) [A) BaF-human Mpl]” value was around 0.04 nM. Further, the “EC50 (read off the curve) [B) BaF-monkey Mpl]” value in assay [5] is around 0.04 nM.
